In patent US8754033B2, “Peptides for inhibiting transglutaminase” (National Cancer Center, priority 2005, dated 2014):

biological target: transglutaminase (guinea pig liver, Sigma) (Cavia cutleri, UniProt P08587); assay: not given; settings: purified I-κBα with 1 mU transglutaminase, 50 mM Tris-HCl pH 7.5, 10 mM CaCl2, NuPAGE gel; in the presence of EDTA

Row | Compound | inhibition of transglutaminase (I-κBα polymerization)
1 | O=C(O)CN(CCN(CC(=O)O)CC(=O)O)CC(=O)O [EDTA] | inhibited

biological target: T1, TGase (UniProt P08587); assay: Competition assay: transglutaminase-mediated I-κBα cross-linking with or without synthetic peptides; format: biochemical, guinea pig; settings: peptide 2 nmol, I-κBα 2 μg, 0.5 mU TGase, 10 mM CaCl2, 10 min at 37° C., SDS-PAGE, Coomassie band intensity
T1 sequence (P08587 1-690): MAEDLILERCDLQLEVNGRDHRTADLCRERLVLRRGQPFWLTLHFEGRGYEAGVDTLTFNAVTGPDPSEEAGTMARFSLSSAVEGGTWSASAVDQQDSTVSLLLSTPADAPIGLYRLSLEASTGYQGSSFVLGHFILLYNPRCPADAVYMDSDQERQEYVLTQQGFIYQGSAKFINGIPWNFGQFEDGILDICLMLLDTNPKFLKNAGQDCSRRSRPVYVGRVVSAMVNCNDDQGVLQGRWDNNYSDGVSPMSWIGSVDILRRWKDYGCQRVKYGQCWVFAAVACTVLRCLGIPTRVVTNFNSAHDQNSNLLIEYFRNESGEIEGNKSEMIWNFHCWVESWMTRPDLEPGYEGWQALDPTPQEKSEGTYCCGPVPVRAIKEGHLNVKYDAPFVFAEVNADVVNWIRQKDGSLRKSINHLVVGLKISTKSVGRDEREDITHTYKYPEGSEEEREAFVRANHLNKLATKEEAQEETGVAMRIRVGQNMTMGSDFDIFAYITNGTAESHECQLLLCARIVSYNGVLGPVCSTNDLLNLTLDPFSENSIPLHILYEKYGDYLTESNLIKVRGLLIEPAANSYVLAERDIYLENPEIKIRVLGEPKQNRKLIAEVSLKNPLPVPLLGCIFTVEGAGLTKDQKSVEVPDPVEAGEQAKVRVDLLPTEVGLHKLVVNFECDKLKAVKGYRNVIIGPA
Protocol: I-κBα (2 μg) was incubated with 0.5 mU TGase in a reaction buffer containing 50 mM Tris pH 7.5 and 10 mM CaCl2, with or without the peptides (2 nmol) of Table 1, so as to observe the cross-linking of I-κBα. The peptides of Table 1 were synthesized in Peptron Inc. After incubation for 10 min at 37° C., the reactants were separated by SDS-PAGE and visualized by Coomassie staining. Bands were measured for intensity using Adobe Photoshop software (FIGS. 7 and 8).

Row | Compound | inhibition of transglutaminase-mediated I-κBα polymerization
2 | RIEQELG [mutant of I-κBα-derived peptide] | inhibit transglutaminase-mediated I-κBα polymerization
3 | LGQLT [I-κBα-derived synthetic peptide, residues 269-273] | inhibit transglutaminase-mediated I-κBα polymerization
4 | TRIQQQLGQLTL [I-κBα-derived synthetic peptide, residues 263-274] | inhibit transglutaminase-mediated I-κBα polymerization
5 | RIEEQLG [mutant of I-κBα-derived peptide] | inhibit transglutaminase-mediated I-κBα polymerization
6 | HSILKATNY [I-κBα-derived synthetic peptide, residues 173-181] | inhibit transglutaminase-mediated I-κBα polymerization
7 | ENLQMLP [I-κBα-derived synthetic peptide, residues 275-281] | inhibit transglutaminase-mediated I-κBα polymerization
8 | RIQEELG [mutant of I-κBα-derived peptide] | inhibit transglutaminase-mediated I-κBα polymerization
9 | GVLTQSCTT [I-κBα-derived synthetic peptide, residues 161-169] | inhibit transglutaminase-mediated I-κBα polymerization
10 | RDGLKKERLL [I-κBα-derived synthetic peptide, residues 17-26] | inhibit transglutaminase-mediated I-κBα polymerization
11 | RIQQQLG [I-κBα-derived synthetic peptide, residues 264-270] | inhibit transglutaminase-mediated I-κBα polymerization
12 | VFGGQRLTL [I-κBα-derived synthetic peptide, residues 309-317] | inhibit transglutaminase-mediated I-κBα polymerization
13 | ILKAT [I-κBα-derived synthetic peptide, residues 175-179] | inhibit transglutaminase-mediated I-κBα polymerization
14 | IHEEKALTM [I-κBα-derived synthetic peptide, residues 83-91] | inhibit transglutaminase-mediated I-κBα polymerization
